Patent US20250027068A1 (published 2025)
Residue numbers refer to the chain shown, from its start.

B1: PRT-376 (enzyme)
chain: MVTSVWTKGVTPPTNFTYGEDVLHAPYVANQGWYDITKLFNGKDDLLCGAATAGNMLHWWFDQNKEQIENYLKKHPEKQKINFNGEQMFDVKEAIDTKDSQLDSKLFEYFKEKAFPYLSTKHLGVFPDHVIDMFINGYRLSLTNHGPTPVKRGSKDPRGGIFDAVFTRGDQSKLLTNRHDFKEKTLKEISDLIKQELTEGKALGISHTYANVRINHVINLWGADFDAEGNLEAIYVTDSDSNASIGMKKYFVGVNSNGKVAISAKEIEEDNIGAQVLGLFTLSTGQDIWNQTN
B2: PRT-386 (enzyme)
chain: B1 chain with L39T, Y235A
B3: PRT-393 (enzyme)
chain: B1 chain with L39T, S241T
B4: PRT-378 (enzyme)
chain: B1 chain with L39T, Y117S
B5: PRT-385 (enzyme)
chain: B1 chain with L39T, V212G
B6: PRT-394 (enzyme)
chain: B1 chain with L39T, N242E
B7: PRT-443 (enzyme)
chain: MSQTEDSESLQRLRDIEDFQAEKKKQNVVYTKWLDGVDVKDHDFRKIVDGNIAYYATPLLNGRGFYDINKDFNRDSDKCAAAVAANMFHYWLDRNRDNVDRFLRQNPEKHGIIELPDEQLKLSDFLNTYESDDGYRDKSKLFDFISNNFNGPVWTDKLLDNYINGYAYNYKYGRTIEDPTKNTSKINFFKEVFNEKILTNNHSIRNQNEFSVLLSEALYTGKAIGLSYGPAGLRHSLGHIISVWGADLDADGNVVAIYVTDSDDKKLTIGDERVGLKRYKISTDDEGRLRLTAYEETHNTGGQIRGLWTLDTGKQAWADYFDKTEQTGTDQAEQ
B8: PRT-401 (enzyme)
chain: MVTSVWTKGVTPPADFTQGEDVFHAPYVANQGWYDITKEFNGKDDLLCGAATAGNMLHWWFDQNKEYIEAYLKKHPEKQKIMFGDQELLDVRKAINTKGSQKNSELFNYFRDKAFPNLSARRLGVMPDLVLDMFINGYYLNVTKTQTTDVNRTYQEKDKRGGIFDAVFTRGDQSKLLTSRHDFKEKGLKEISDLIKQELTEGKALGLSHTYANVRINHVINLWGADFDSDGNLKAIYVTDSDSNASIGMKKYFVGVNSAGKVAISAKEIKEDNIGAQVLGLFTLSTGQDIWNQTN
B9: PRT-409 (enzyme)
chain: B8 chain with E39T, D172V
B10: PRT-280 (enzyme)
chain: MVTSVWTKGVTPPAKFTQGEDVFHAPYVANQGWYDITKTFNGKDDLLCGAATAGNMLHWWFDQNKEKIEAYLKKHPDKQKIMFGDQELLDVRKVINTKGDQTNSELFNYFRDKAFPNLSARRIGVMPDLVLDMFINGYYLNVYKTQTTDVNRTYQEKDRRGGIFDAVFTRGDQSKLLTSRHDFKEKNLKEISDLIKKELTEGKALGLSHTYANVGINHVINLWGADFDSNGNLKAIYVTDSDSNASIGMKKYFVGVNSSGKVAISAKEIKEDNIGAQVLGLFTLSTGQDSWNQTN
B11: PRT-288 (enzyme)
chain: B10 chain with V28D, T39E, G215R, N217G, F253G, S259A
B12: PRT-220 (enzyme)
chain: MEVVEVWPYGQNPNGKTEILSQTEDSESLQRLRDIEDFQAEKKKQGVVYTKWLDGVNVDDHEFRKITDGNTEYYATPLLNGRGYYDINKDFNRDSDKCAAAVAANMFHYWLDRNRDNVDRFLRQNPDKHGIIELPDGQLKLSDFLNTYESDHDYRDKSKLFDFISNNFNGPVWTNKLLDNYINGYGYNYKYGRTIEDPTKNTSKINFFKEVFNGKLLTDNHSIRNKNEFSSKLSEALYTGKAIGLSYGPAGLRHSLGHIISVWGADLDEDGNVVAIYVTDSDDKKLTIGDERVGLKRYKVSYDDEGRARLTAYEETDNTGGEIRGLWTLDTGKQYWADYFDKTEQTGTDQAEQLEHHHHHH
B13: PRT-219 (enzyme)
chain: MEVVEVWPYGQNPNGKTEILSQTEDSESLQRLRDIEDFQAEKKKQNVVYTKWLDGVTVDDSDFRKIKDGNTEYYATPLLNGRGFYDINKDFNRDSDKCAAAVAANMFHYWLDRNRDNVDRFLKQNPEKHGIIELPDGQLKLSDFLNTYESDNNYRDKSKLFDFISKNFNGPVWTNKLLDNYINGYGYNYKYGRTIEDPTKNTSKINFFKKVFNEKILTNVHQIFNYNEFSTLLSEALYTGKAIGLSYGPGGLRHSLGHIISVWGADLDADGNVVAIYVTDSDDKKLTIGDERVGLKRYKISTDDEGRARLTAYTETDNTGGQVRGIWTLDTGKQAWADYFDKTEQTGTDQAEQLEHHHHHH
B14: PRT-417 (enzyme)
chain: MTITSVWTKGVTPPTPEDFRYNNEDVLHAPYVANQGWYDITKTFDGKDNLLCGAATAGNMLHWWFDQNKEEIERYLKKHPEKQKIIFNNQELFDVKAAIDTKDSQTNSKLFNYFRDKAFPNLSARQLGVMPDLVLDMFINGYYLNLGKTQSTDVNRPYQDKDKRGGIFDAVFTRGDQTTLLTARHDLKNKGLNEISDLIKQELTEGKALALSHTYANVRINHVINLWGADFDAEGELIAIYVTDSDANASIGMKKYFVGVNANGKVAISAKKIEGDNIGAQVLGLFTLSTGQDIWQKLS
B15: PRT-425 (enzyme)
chain: B14 chain with N121G, E236N
B16: PRT-221 (enzyme)
chain: MEVVEVWPYGQNPNGKTEILSQTEDSESLQRLRDIEDFQAEKKMQNVVYTKWLDGVDVKDHDFRKIVDGNIAYYATPLLNGRGFYDINKDFNRDSDKCAAAVAANMFHYWLDINRDNVDRFLRQNPEKHGIIELPDGQLKLSDFLNTYESDHGYRDKSKLFDFISNNFNGPVWTDKLLDNYINGYAYNYKYGRTIEDPTKNTSKINFFKEVFNEKILTNNHSIRNQNEFSVLLSEALYTGKAIGLSYGPAGLRHSLGHIISVWGADLDADGNVVAIYVTDSDDKKLTIGDERVGLKRYKISTDDENRLRLTAYEETHNTGGQIRGLWTLDTGKQAWADYFDKTEQTGTDQAEQLEHHHHHH
B17: PRT-226 (enzyme)
chain: B16 chain with M44K, K59D, I71T, A72E, I113R, D175N, A186G, N306G, L308A, H317D
B18: PRT-223 (enzyme)
chain: B16 chain with M44K, Q45E, V231D
B19: PRT-222 (enzyme)
chain: B16 chain with N306G, Q334Y
B20: PRT-225 (enzyme)
chain: B16 chain with M44K, Q45E, A72E, L308A, H317D
B21: PRT-224 (enzyme)
chain: B16 chain with M44K, N306G

How the values were obtained:
[1] = target: pooled human IgG (human IgG1, 2, 3 and 4) (human); assay: cell-based or functional assay
pooled human IgG = pooled human IgG (human); assay: cell-based or functional assay
Further: test concentration or dose not given here.

Row | Binder | Enzyme Activity Endpoint Assay: Fab′2 [1] | Enzyme Activity Endpoint Assay: Fc [1] | Enzyme Activity Endpoint Assay: IgG [1] | Enzyme Activity Endpoint Assay: scIgG [1] | Enzyme Activity Endpoint Assay (purified): Fab′2 (pooled human IgG) | Enzyme Activity Endpoint Assay (purified): Fc (pooled human IgG) | Enzyme Activity Endpoint Assay (purified): IgG (pooled human IgG) | Enzyme Activity Endpoint Assay (purified): scIgG (pooled human IgG)
1 | B1 | 496 ng/µL | 325 ng/µL | 0 ng/µL | 196 ng/µL |  |  |  | 
2 | B2 | 519 ng/µL | 337 ng/µL | 0 ng/µL | 240 ng/µL |  |  |  | 
3 | B3 | 663 ng/µL | 317 ng/µL | 0 ng/µL | 0 ng/µL |  |  |  | 
4 | B4 | 477 ng/µL | 319 ng/µL | 0 ng/µL | 207 ng/µL |  |  |  | 
5 | B5 | 494 ng/µL | 265 ng/µL | 103 ng/µL | 56 ng/µL |  |  |  | 
6 | B6 | 482 ng/µL | 323 ng/µL | 0 ng/µL | 209 ng/µL |  |  |  | 
7 | B7 | 17 ng/µL | 0 ng/µL | 431 ng/µL | 535 ng/µL |  |  |  | 
8 | B8 | 624 ng/µL | 329 ng/µL | 128 ng/µL | 0 ng/µL |  |  |  | 
9 | B9 | 658 ng/µL | 313 ng/µL | 0 ng/µL | 0 ng/µL |  |  |  | 
10 | B10 | 423 ng/µL | 305 ng/µL | 319 ng/µL | 0 ng/µL |  |  |  | 
11 | B11 | 439 ng/µL | 334 ng/µL | 348 ng/µL | 0 ng/µL |  |  |  | 
12 | B12 |  |  |  |  | 0 ng/µL | 61 ng/µL | 2320 ng/µL | 0 ng/µL
13 | B13 |  |  |  |  | 104 ng/µL | 407 ng/µL | 886 ng/µL | 443 ng/µL
14 | B14 | 193 ng/µL | 27 ng/µL | 324 ng/µL | 0 ng/µL |  |  |  | 
15 | B15 | 568 ng/µL | 27 ng/µL | 169 ng/µL | 0 ng/µL |  |  |  | 
16 | B16 |  |  |  |  | 117 ng/µL | 439 ng/µL | 653 ng/µL | 461 ng/µL
17 | B17 |  |  |  |  | 0 ng/µL | 0 ng/µL | 1960 ng/µL | 0 ng/µL
18 | B18 |  |  |  |  | 189 ng/µL | 391 ng/µL | 375 ng/µL | 316 ng/µL
19 | B19 |  |  |  |  | 487 ng/µL | 78 ng/µL | 1550 ng/µL | 21 ng/µL
20 | B20 |  |  |  |  | 0 ng/µL | 63 ng/µL | 1500 ng/µL | 0 ng/µL
21 | B21 |  |  |  |  | 217 ng/µL | 382 ng/µL | 344 ng/µL | 314 ng/µL
